Measured values published in US20030232420A1 (SEQUENOM, published 2003).
Ends that are not written are not given here.

Key:
[1] = molecular target: T1, Full-length murine RIIα (murine, UniProt P12367 2-401); assay: fluorescence anisotropy, labeled peptide, n = 3
T1 construct: mature; given as full-length
Protocol: (§1) Binding of each fluorescently labeled peptide to the regulatory subunits was monitored using fluorescence anisotropy. RIα and RIIα were serially diluted beginning at 1 μM and 0.1 μM, respectively, into 10 mM HEPES pH 7.4, 0.15 M NaCl, 3 mM EDTA, 0.005% Surfactant P20 (Biacore) containing either 10 nM or 1 nM of fluorescently labeled peptide for RIα and RIIα, respectively. The samples were equilibrated for at least 1 hour at room temperature and fluorescence anisotropy monitored using a Fluoromax-2 (Jobin Yvon Horiba, SPEX Division, Edison, N.J.) equipped with Glan-Thompson polarizers. The rhodamine-labeled peptide was excited at 541 nm (5-10 nm bandpass) and emission monitored at 575 nm (5-10 nm bandpass). The anisotropy was calculated directly with the Fluoromax software using the following equation: […]
(§2) The binding affinities of three peptides designated RIIα-specific (A13L; SEQ ID NO:109), RIα-specific (Q9F, V21W, and M25F; SEQ ID NO:103) and null (A17E and V21W; SEQ ID NO:110) were compared with the unsubstituted peptide (FIG. 2 and Table 7) using fluorescence anisotropy. […] The null peptide bound very poorly to RIα and binding to RIIα could not be detected (FIG. 2).

[2] = molecular target: T2, Full-length bovine RIα (bovine, UniProt P00514 1-380); assay: fluorescence anisotropy, labeled peptide, n = 3
T2 construct: mature; given as full-length
T2 sequence (P00514 whole entry): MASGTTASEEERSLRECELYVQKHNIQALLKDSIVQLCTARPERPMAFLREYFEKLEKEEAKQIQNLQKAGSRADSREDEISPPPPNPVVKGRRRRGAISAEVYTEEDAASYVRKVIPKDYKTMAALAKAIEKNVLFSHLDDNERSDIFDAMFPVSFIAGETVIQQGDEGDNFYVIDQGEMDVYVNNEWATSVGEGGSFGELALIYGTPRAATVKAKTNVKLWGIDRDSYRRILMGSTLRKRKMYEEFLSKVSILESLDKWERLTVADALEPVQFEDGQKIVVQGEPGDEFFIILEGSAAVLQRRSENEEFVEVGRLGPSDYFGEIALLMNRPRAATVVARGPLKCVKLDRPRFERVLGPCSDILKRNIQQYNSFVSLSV
Protocol: as §1, §2

[3] = molecular target: T3, RIα isoform of the PKA regulatory subunit (Bos taurus (Bovine), UniProt P00514 2-380); assay: fluorescence anisotropy
T3 construct: also called R1α; PKA-RIα
T3 sequence (P00514 2-380 limits assumed): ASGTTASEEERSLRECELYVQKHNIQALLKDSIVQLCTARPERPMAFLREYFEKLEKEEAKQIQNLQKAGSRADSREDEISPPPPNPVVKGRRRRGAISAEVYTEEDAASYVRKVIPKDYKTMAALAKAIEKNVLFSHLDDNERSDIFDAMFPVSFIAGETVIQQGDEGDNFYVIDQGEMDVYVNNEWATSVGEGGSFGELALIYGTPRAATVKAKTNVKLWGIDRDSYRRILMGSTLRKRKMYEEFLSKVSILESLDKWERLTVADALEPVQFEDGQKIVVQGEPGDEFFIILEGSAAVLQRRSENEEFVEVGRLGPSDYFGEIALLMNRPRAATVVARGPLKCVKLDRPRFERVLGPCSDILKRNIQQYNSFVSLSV

[4] = molecular target: T1, Full-length murine RIIα; assay: fluorescence anisotropy, labeled peptide with increasing full-length RIIα; the concentration on the axis is that of the protein
Protocol: as §1, §2

[5] = molecular target: T1, Full-length murine RIIα; assay: fluorescence anisotropy, labeled peptide
Protocol: as §1
(§3) Several additional truncated and substituted peptides were synthesized and their affinity to RIα and RIIα evaluated using fluorescence anisotropy (see Table 8). Binding was evaluated for both RIα and RIIα0 using fluorescence anisotropy as described herein. Substituted residues are in bold Table 8. Tryptophan at a position corresponding to residue 21 of SEQ ID NO:2 is important for discriminating against binding to the RIIα subunit.

[6] = molecular target: T2, Full-length bovine RIα; assay: fluorescence anisotropy, labeled peptide
Protocol: as §1, §3

[7] = molecular target: T2, Full-length bovine RIα; assay: fluorescence anisotropy, labeled peptide with increasing full-length RIα; the concentration on the axis is that of the protein
Protocol: as §1, §2

[8] = molecular target: T4, PKA-RIIα-GFP (UniProt P42212 1-238 = GFP); assay: SPOT membrane, anti-GFP detection
T4 construct: it may be the same construct as m8; also called PKA-RIIa-GFP
Protocol: Substitution analysis of both allelic peptides ([…]; SEQ ID NO:2 and […]; SEQ ID NO:1) was conducted. Each amino acid of the 27-mer peptide was substituted, one amino acid at a time per peptide, by any naturally occurring L- and D- amino acid. For both peptides complete L- and D- substitution analysis membranes have been screened for binding of PKA-RIα-GFP. After regeneration, the peptide arrays were incubated with PKA-RIIα-GFP. After binding, detection was carried out with an anti-GFP antibody in combination with a peroxidase-labeled secondary antibody.

[9] = molecular target: T5, GFP-RIα D/D (bovine, UniProt P00514 1-109); assay: SPOT peptide array, anti-GFP detection
T5 construct: range 1-109; His tag cleaved with thrombin; also called dimerization/docking (D/D) domain of bovine RIα (residues 1-109) fused to GFP; not shown: green fluorescent protein (GFP)
T5 sequence (P00514 1-109): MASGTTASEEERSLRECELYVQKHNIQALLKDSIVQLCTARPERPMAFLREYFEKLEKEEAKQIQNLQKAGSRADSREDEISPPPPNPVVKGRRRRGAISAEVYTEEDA

[10] = molecular target: T6, GFP-RIIα D/D (mouse, UniProt P12367 1-46); assay: SPOT peptide array, anti-GFP detection
T6 construct: range 1-46; His tag cleaved with thrombin; also called GFP-RII D/D; D/D domain of mouse RIIα (residues 1-46) fused to GFP; not shown: green fluorescent protein (GFP)
T6 sequence (P12367 1-46): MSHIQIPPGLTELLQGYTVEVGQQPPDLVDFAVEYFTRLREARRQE

[11] = molecular target: T2, Full-length bovine RIα; assay: fluorescence anisotropy

T1 sequence (P12367 2-401): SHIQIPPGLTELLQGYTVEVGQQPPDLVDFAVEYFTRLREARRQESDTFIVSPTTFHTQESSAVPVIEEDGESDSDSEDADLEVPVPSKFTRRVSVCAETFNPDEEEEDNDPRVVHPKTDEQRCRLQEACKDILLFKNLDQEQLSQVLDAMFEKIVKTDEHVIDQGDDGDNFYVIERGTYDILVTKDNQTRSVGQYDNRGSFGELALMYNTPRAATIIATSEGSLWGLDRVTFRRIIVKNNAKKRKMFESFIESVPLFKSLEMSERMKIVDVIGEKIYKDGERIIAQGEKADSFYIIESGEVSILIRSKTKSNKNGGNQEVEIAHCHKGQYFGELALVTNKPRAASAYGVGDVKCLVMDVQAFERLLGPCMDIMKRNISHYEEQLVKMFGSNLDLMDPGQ

## VQGNTDEAQEELAWKIAKMIVSDVMQQC(tetramethylrhodamine‑5‑maleimide)-NH2 (also called unsubstituted peptide) [AKB (dual), WT (SEQ ID NO:108) VQGNTDEAQEELAWKIAKMIVSDVMQQC, rhodamine-labeled]
[1]
  Kd: 2.2 nM
[2]
  Kd: 48 nM
[3]
  fold increase in binding affinity against the Ile variant: ~3 fold
[4]
  EC50 (read off the curve): ~3 nM
[5]
  Kd: 2.2 nM
[6]
  Kd: 48 nM
[7]
  EC50 (read off the curve): ~50 nM

B1: AKB (null) (SEQ ID NO:110) VQGNTDEAQEELAWKIEKMIWSDVMQQC, rhodamine-labeled (peptide)
peptide: VQGNTDEAQEELAWKIEKMIWSDVMQQC(tetramethylrhodamine‑5‑maleimide)-NH2
notes: also called null peptide (A17E and V21W)
[1]
  Kd: > 10000 nM
[2]
  Kd: 998 nM

## VQGNTDEAQEELLWKIAKMIVSDVMQQC(tetramethylrhodamine‑5‑maleimide)-NH2 (also called RIIα-specific (A13L)) [AKB (RII), RII specific (SEQ ID NO:109) VQGNTDEAQEELLWKIAKMIVSDVMQQC, rhodamine-labeled]
[1]
  Kd: 2.7 nM
[2]
  Kd: 2490 nM
[4]
  EC50 (read off the curve): ~3 nM

B2: VQGNTDEAQEELAWKIAKMIVSDVMQQ (SEQ ID NO:2), cellulose-bound (peptide)
peptide: VQGNTDEAQEELAWKIAKMIVSDVMQQ
modifications: also: cellulose-bound
notes: also called Val variant 27-mer; V24 peptide
[8]
  fold signal intensity against PKA-RIα-GFP: ~10 fold

B3: VQGNTDEAQEELAWKIAKMIVSDIMQQ (SEQ ID NO:1), cellulose-bound (peptide)
peptide: VQGNTDEAQEELAWKIAKMIVSDIMQQ
modifications: also: cellulose-bound
notes: also called Ile variant 27-mer; I24 peptide
[9]
  binding result: binds
[10]
  binding result: binds
[8]
  fold signal intensity against PKA-RIα-GFP: ~10 fold

B4: AKB (RI), RI specific (SEQ ID NO:103) FEELAWKIAKMIWSDVFQQC, rhodamine-labeled (peptide)
peptide: FEELAWKIAKMIWSDVFQQC(tetramethylrhodamine‑5‑maleimide)-NH2
notes: also called PV-38; RIα-specific (Q9F, V21W, M25F)
[1]
  Kd: 456 nM
[2]
  Kd: 5.2 nM
[11]
  fold enhancement of binding against the unsubstituted peptide: 10 fold
[4]
  EC50 (read off the curve): ~500 nM
[5]
  Kd: 456 nM
[6]
  Kd: 5.2 nM
[7]
  EC50 (read off the curve): ~10 nM
